# Measured values: patent US20070149453A1
# T1: IL-1 Type II Receptor peptide (Dabcyl-Q-T-K-R-T-T-V-K-E-A-Edans)
# T1 chain: QTKRTTVKEA
# T2: IL-6 Receptor peptide (Dabcyl-A-N-A-T-S-L-P-Edans)
# T2 chain: ANATSLP
# T3: p75 TNF Receptor peptide (Dabcyl-C-T-S-T-S-P-T-R-Edans)
# T3 chain: CTSTSPTR
# T4: p55 TNF Receptor peptide (Dabcyl-N-V-K-G-T-E-D-S-G-Edans)
# T4 chain: NVKGTEDSG
# T5: IL-1 Type I Receptor peptide (Dabcyl-T-H-G-I-D-A-A-Y-I-Q-Edans)
# T5 chain: THGIDAAYIQ
# B1: MP8 (original clone, core MP8, N-terminal His tag and thrombin site) (protein)
# chain: WIQRIRHEGNSTVYEWRTGTEPSVVERPHLEELPEQVAEDAIDWGDFGVEAVSEGTDSGISAEAAGIDWGIFPESDSKDPGGDGIDWGDDAVALQITVLEAGTQAPEGVARGPDALTLLEYTETRNQFLDELMELEIFLAQRAVELSEEADVLSVSQFQLAPAILQGQTKEKMVTMVSVLEDLIGKLTSLQLQHLFMILASPRYVDRVTEFLQQKLKQSQLLALKKELMVQKQQEALEEQAALEPKLDLLLEKTKELQKLIEADISKRYSGRPVNLMGTSL
# B2: MP8-FL2 (full length MP8 without His tag, from E. coli strain MP820) (protein)
# chain: MCVHPGACLPHVGVSWAEFPGHFSVELSSLLVRNVNYEIPSLKKQIAKCQQLQQEYSRKEEECQAGAAEMREQFYHSCKQYGITGENVRGELLALVKDLPSQLAEIGAAAQQSLGEAIDVYQASVGFVCESPTEQVLPMLRFVQKRGNSTVYEWRTGTEPSVVERPHLEELPEQVAEDAIDWGDFGVEAVSEGTDSGISAEAAGIDWGIFPESDSKDPGGDGIDWGDDAVALQITVLEAGTQAPEGVARGPDALTLLEYTETRNQFLDELMELEIFLAQRAVELSEEADVLSVSQFQLAPAILQGQTKEKMVTMVSVLEDLIGKLTSLQLQHLFMILASPRYVDRVTEFLQQKLKQSQLLALKKELMVQKQQEALEEQAALEPKLDLLLEKTKELQKLIEADISKRYSGRPVNLMGTSL
# Experiments:
# [1] = target: mouse p55 TNF receptor (mouse) (UniProt P25118); experiment: cell-based or functional assay
# [2] = target: mouse p75 TNF receptor (mouse) (UniProt P25119); experiment: cell-based or functional assay
# [3] = target: T1, IL-1 Type II Receptor peptide …
# [4] = target: T2, IL-6 Receptor peptide …
# [5] = target: T3, p75 TNF Receptor peptide …
# [6] = target: T4, p55 TNF Receptor peptide …
# [7] = target: T5, IL-1 Type I Receptor peptide …
# Chain of mouse p55 TNF receptor (mouse) (P25118 30-454 limits assumed): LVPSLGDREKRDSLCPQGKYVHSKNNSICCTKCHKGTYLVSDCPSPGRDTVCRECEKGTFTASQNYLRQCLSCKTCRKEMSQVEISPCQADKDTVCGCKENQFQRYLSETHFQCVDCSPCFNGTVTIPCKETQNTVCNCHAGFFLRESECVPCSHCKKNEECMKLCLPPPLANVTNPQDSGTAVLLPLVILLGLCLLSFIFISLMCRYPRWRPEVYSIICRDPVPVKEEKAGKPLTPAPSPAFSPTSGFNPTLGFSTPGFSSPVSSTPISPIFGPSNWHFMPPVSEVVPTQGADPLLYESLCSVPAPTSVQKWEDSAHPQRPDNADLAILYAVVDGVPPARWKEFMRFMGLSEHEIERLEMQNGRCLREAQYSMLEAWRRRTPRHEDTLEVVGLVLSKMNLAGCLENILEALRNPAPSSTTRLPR
# Chain of mouse p75 TNF receptor (mouse) (P25119 23-474 limits assumed): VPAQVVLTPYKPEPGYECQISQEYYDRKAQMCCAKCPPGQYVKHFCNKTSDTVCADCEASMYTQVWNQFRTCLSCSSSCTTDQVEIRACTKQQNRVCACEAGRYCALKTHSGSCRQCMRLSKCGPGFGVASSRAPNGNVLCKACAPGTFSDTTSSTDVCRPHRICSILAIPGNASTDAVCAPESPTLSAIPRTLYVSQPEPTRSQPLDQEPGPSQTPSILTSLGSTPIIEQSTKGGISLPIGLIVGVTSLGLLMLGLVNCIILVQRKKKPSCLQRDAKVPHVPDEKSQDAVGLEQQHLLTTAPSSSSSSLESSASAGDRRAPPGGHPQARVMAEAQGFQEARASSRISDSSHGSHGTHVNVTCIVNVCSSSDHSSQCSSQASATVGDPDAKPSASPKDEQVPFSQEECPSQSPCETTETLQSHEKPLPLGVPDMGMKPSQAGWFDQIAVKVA
Binder,circulating TNF receptor in serum of Balb/c mice after s.c. MP8 (ELISA) [1] [fold],circulating TNF receptor in serum of Balb/c mice after s.c. MP8 (ELISA) [2] [fold],relative peptide cleavage activity (FRET assay) [3],"peptide cleavage (FRET assay, Zn++/Ca++ dependent) [4]","peptide cleavage (FRET assay, Zn++/Ca++ dependent) [5]","peptide cleavage (FRET assay, Zn++/Ca++ dependent) [6]",relative peptide cleavage activity (FRET assay) [7],peptide cleavage (FRET assay) [5],peptide cleavage (FRET assay) [6]
B1,100,100,"Clone MP8 shows specificity for several receptors involved in the inflammatory pathway (TNF-R p55 and p75 isoforms, IL-6 receptor and IL-1 receptors) in comparison with control substrates",MP8 also cleaves the IL-6 receptor peptide with high activity,MP8 cleaves the peptides from both the p55 and p75 TNF receptors (TNF-R1 and TNF-R2),MP8 cleaves the peptides from both the p55 and p75 TNF receptors (TNF-R1 and TNF-R2),"Clone MP8 shows specificity for several receptors involved in the inflammatory pathway (TNF-R p55 and p75 isoforms, IL-6 receptor and IL-1 receptors) in comparison with control substrates",,
B2,,,,,,,,The same preparation of MP8-FL2 caused cleavage of both R1 ... and R2 (Dabcyl-C-T-S-T-S-P-T-R-Edans; SEQ. ID NO:73),The same preparation of MP8-FL2 caused cleavage of both R1 (Dabcyl-N-V-K-G-T-E-D-S-G-Edans; SEQ. ID NO:71) and R2
